For data set [1] the following is noted: rat, in vivo, iv. As for the experimental part: [^68Ga]Ga-NO2A-Col or [^68Ga]Ga-NODAGA-Col was injected into the tail vein of rats as a bolus with 500 µL phosphate-buffered saline (pH 7.4) as the vehicle (Table 1). The injected amount of the peptides was 0.8 ± 0.2 nanomoles. The animals were euthanized by a CO2–O2 mixture at 5, 10, 20, 40, 60 and 120 min post-injection. The radioactivity of the excised organs was measured in a well-type NaI(Tl) scintillation counter, applying correction for dead-time and radioactivity decay. The weight of the tissues was determined simultaneously. The remaining carcass was also measured in order to monitor the radioactivity elimination and recovery. Samples from blood, heart, lung, liver, spleen, adrenal glands, kidneys, intestines, with or without contents, muscle, testis, bone, brain, pancreas, urine bladder and bone marrow were collected. The radioactivity readings were decay-corrected to the time of the injection, and the results were expressed as standardized uptake values (SUV; Equation (1)), where the radioactivity of an organ and injected radioactivity was expressed in MBq, and the weight of a rat and organ was expressed in g. (1) SUV=Radioactivityorgan×weightrat/Radioactivityinjected×weightorgan […]

On the set-up of data set [2]: species or system human. To be noted: in vivo. How it is done: Human organ and total body absorbed and effective dose estimates were calculated according to the Medical Internal Radionuclide Dose (MIRD) procedure using the measured residence times and the dose rate S-values. The SUV values in rat were first multiplied with the appropriate radioactivity decay factor dependent on the time point of the data post-injection, then multiplied by standard organ masses and divided by the standard total-body weight for the standard adult man phantom obtained from the OLINDA/EXM 1.1 software (Organ Level Internal Dose Assessment Code, Vanderbilt University, Nashville, TN, USA, 2007). The values obtained correspond to the fraction of injected radioactivity (%IA) per organ in man as a function of time (Equation (2), where SUVA is the SUVs of rat organs; gorgan and kgTBweight are respectively the standard organ weight and standard total body weight of a human). (2) (%IAOrgan)human=SUVA×(gorgan/kgTBweight)human
The cumulative radioactivity for the organs was determined by integrating the area under the time-radioactivity curves for each organ using trapezoidal approximation of the collected kinetic data, followed by extrapolation of remaining points from the last time point to infinity by a single exponential fit. The residence time for each organ is equal to the number of disintegrations (MBq × h/MBq). Bone marrow residence time was assessed according to the bone marrow blood model. The residence time for the remaining carcass was calculated in the same way as for the other organs, and this value was used as input in the OLINDA software as “remainder”. The “remainder” of the body residence time was calculated from SUV due to radioactivity measured in the rest of the body after the removal of the source organs and tail. The difference between the theoretical residence time and the calculated residence time of the source organs plus the remainder of the body was assumed to have been in the tail or excreted. The kidney absorbed dose was calculated based on a multi-region kidney model phantom. The total target organ absorbed dose (D) is contributed by all source organs and is expressed by Equation (3), where Ã is the time-integrated radioactivity in the source tissue (rS) and S is the radionuclide-specific dose rate values: (3) D(rT,t)=∑rSÃ(rS,t)×S(rT←rS,t)
The similarity of the biodistribution pattern in human and rat and the homogeneous distribution of radioactivity throughout the organ were two basic assumptions considered when extrapolating rat biodistribution data to the human species for the calculation of the absorbed and total effective doses. The organ distribution study was conducted for 120 min. The residence time was determined using the trapezoidal rule, wherein the area from the injection time to the termination time was calculated. […] The values were higher for male animals. This is because the residence time is integrated over the entire tissue using the standardized human dosimetry model of organ volumes, where in the human male model, the muscle volume is around 1.65-times higher than that in the female model (28 vs. 17 kg), and the male model blood volume (5.5 L) is almost 1.5 larger than in the female model (3.8 L). The other tissues are also larger in the male model, but to a lesser extent. During the calculation of the absorbed dose in each tissue (mSv/MBq) by OLINDA, the values are again divided with each tissue’s volume, providing final dose values.
Absorbed doses and total effective doses were calculated using residence time values as the input into OLINDA/EXM 1.1, the MIRD scheme of an adult (70 kg) and recommended tissue weighting factors from the International Commission on Radiological Protection (ICRP, 2007). The absorbed doses (mGy/MBq) and total effective doses (mSv/MBq) obtained from OLINDA/EXM 1.1 calculations are presented in Table 2. […]

A further data set in a line: in vivo. The settings on record: rat; for SUV / SUV at 2 h: both sexes, Sprague-Dawley, total radioactivity; for SUV / SUV at 2 h / Uptake in most of the organs (SUV): iv; for SUV at 2 h: Uptake within 120 min in blood, heart, lung, pancreas, adrenal gland, small intestine, large intestine, testis, muscle and brain (SUV). How it is done:
Animal studies were performed using healthy female and male Sprague–Dawley rats: one male and one female animal per time point and tracer (Table 1). The animal experiments were approved by the local Ethics Committee for Animal Research and performed in accordance with local institutional and Swedish national rules and regulations. The animals were kept at a constant temperature (20 °C) and humidity (50%) in a 12-h light-dark cycle and given free access to food and water.
[^68Ga]Ga-NO2A-Col or [^68Ga]Ga-NODAGA-Col was injected into the tail vein of rats as a bolus with 500 µL phosphate-buffered saline (pH 7.4) as the vehicle (Table 1). The injected amount of the peptides was 0.8 ± 0.2 nanomoles. The animals were euthanized by a CO2–O2 mixture at 5, 10, 20, 40, 60 and 120 min post-injection. The radioactivity of the excised organs was measured in a well-type NaI(Tl) scintillation counter, applying correction for dead-time and radioactivity decay. The weight of the tissues was determined simultaneously. The remaining carcass was also measured in order to monitor the radioactivity elimination and recovery. Samples from blood, heart, lung, liver, spleen, adrenal glands, kidneys, intestines, with or without contents, muscle, testis, bone, brain, pancreas, urine bladder and bone marrow were collected. The radioactivity readings were decay-corrected to the time of the injection, and the results were expressed as standardized uptake values (SUV; Equation (1)), where the radioactivity of an organ and injected radioactivity was expressed in MBq, and the weight of a rat and organ was expressed in g. (1) SUV=Radioactivityorgan×weightrat/Radioactivityinjected×weightorgan

Setting [3] is: Uptake in most of the vital organs, including heart and lung (SUV).
Where [4] appears, read: Uptake in small and large intestines (SUV).

The values that follow come from paper PMC4932549, “Feasibility of Multiple Examinations Using ^68Ga-Labelled Collagelin Analogues: Organ Distribution in Rat for Extrapolation to Human Organ and Whole-Body Radiation Dosimetry” (Pharmaceuticals, 2016).

Each structure is given as a SMILES string. Positions of bridges follow the written chain, without caps; N, C: chain ends. Residues, ends and D or L forms follow the SMILES beside them. *: point of attachment. NODAGA = O=C(O)CN1CCN(CC(=O)O)CCN(C(CCC(=O)*)C(=O)O)CC1; NOTA = O=C(O)CN1CCN(CC(=O)O)CCN(CC(=O)*)CC1; AEEA = NCCOCCOCC(=O)O

Consider `CSCC[C@@H]1NC(=O)[C@H](C(C)C)NC(=O)[C@H](CCCNC(=N)N)NC(=O)CNC(=O)[C@@H]2CCCN2C(=O)[C@@H](NC(=O)COCCOCCNC(=O)CN2CCN(CC(=O)O)CCN(CC(=O)O)CC2)CSSC[C@@H](C(=O)O)NC(=O)[C@@H]2CCCN2C(=O)CNC(=O)[C@H](CCC(=O)O)NC(=O)[C@H](CC(=O)O)NC(=O)[C@H](CC(=O)O)NC(=O)CNC(=O)[C@H](CC(C)C)NC(=O)[C@H](Cc2c[nH]cn2)NC(=O)[C@H](CC(C)C)NC(=O)CNC(=O)[C@H](Cc2c[nH]cn2)NC1=O` [[^68Ga]Ga-NO2A-Col, metal not drawn] ({NOTA-AEEA}-CPGRVMHGLHLGDDEGPC-OH; disulfide 1-18), for which the “Share of radioactivity accounted for by the single exponential blood clearance phase” value in data set [1] was “over 98%”. Also, in data set [2], the “Absorbed dose in liver and spleen relative to [^68Ga]Ga-NODAGA-Col” value is on record as “two-fold lower”; the “Effective dose per administration” value is 0.78–1.64 mSv; the “Estimated absorbed dose, Adrenals” value is listed as 0.009 mGy/MBq; the “Estimated absorbed dose, Breasts” value is recorded as 0.016 mGy/MBq. Moreover, in data set [2], the “Estimated absorbed dose, Uterus” value was 0.019 mGy/MBq; the “Highest organ absorbed dose (kidneys)” value is on record as 0.1 mGy/MBq; the “Kidney absorbed dose as share of maximum allowed dose of 50 mGy to a single organ” value is on record as “about 20%”; the “PET examinations per year before reaching the red marrow limiting dose” value was “over 1000”. Also, in data set [2], the “Radioactivity before reaching the red marrow limiting dose” value is reported as “over 200 GBq”, the “Radioactivity that could be administered per year if limited by kidney dose” value is on record as “over 1460 MBq” and the “Total dose per examination (PET plus CT)” value is 1.78–2.64. Moreover, the SUV in the data set “in vivo” (Kidney uptake (SUV)) was greater than 10 SUV. Further, the SUV in the data set “in vivo” (setting [3]) was less than 0.5 SUV. Besides, the SUV in the data set “in vivo” (setting [4]) is less than 0.1 SUV. Further, in the data set “in vivo” (Uptake in the brain (SUV)), the SUV was less than 0.01 SUV. In addition, in the data set “in vivo”, the SUV at 2 h was less than 0.1 SUV and the “Uptake in most of the organs (SUV)” value is given as “below one”.

For the compound `CSCC[C@@H]1NC(=O)[C@H](C(C)C)NC(=O)[C@H](CCCNC(=N)N)NC(=O)CNC(=O)[C@@H]2CCCN2C(=O)[C@@H](NC(=O)COCCOCCNC(=O)CCC(C(=O)O)N2CCN(CC(=O)O)CCN(CC(=O)O)CC2)CSSC[C@@H](C(=O)O)NC(=O)[C@@H]2CCCN2C(=O)CNC(=O)[C@H](CCC(=O)O)NC(=O)[C@H](CC(=O)O)NC(=O)[C@H](CC(=O)O)NC(=O)CNC(=O)[C@H](CC(C)C)NC(=O)[C@H](Cc2c[nH]cn2)NC(=O)[C@H](CC(C)C)NC(=O)CNC(=O)[C@H](Cc2c[nH]cn2)NC1=O` (some centres unmarked) [[^68Ga]Ga-NODAGA-Col, metal not drawn] ({NODAGA-AEEA}-CPGRVMHGLHLGDDEGPC-OH; disulfide 1-18), the “Share of radioactivity accounted for by the single exponential blood clearance phase” value in data set [1] was “over 98%”. In addition, in data set [2], the “Effective dose per administration” value was 0.78–1.64 mSv; the “Estimated absorbed dose, Brain” value is recorded as 0.002 mGy/MBq; the “Estimated absorbed dose, Breasts” value is on record as 0.016 mGy/MBq; the “Estimated absorbed dose, Spleen” value is 0.011 mGy/MBq. Besides, in data set [2], the “Estimated absorbed dose, Uterus” value was 0.019 mGy/MBq; the “Highest organ absorbed dose (kidneys)” value is 0.1 mGy/MBq; the “Increase of liver residence time/absorbed dose versus [^68Ga]Ga-NO2A-Col” value amounted to 100%; the “Kidney absorbed dose as share of maximum allowed dose of 50 mGy to a single organ” value was roughly 21%. For the same compound, in data set [2], the “PET examinations per year before reaching the red marrow limiting dose” value was “over 1000”, the “Radioactivity before reaching the red marrow limiting dose” value is listed as “over 200 GBq”, the “Radioactivity that could be administered per year if limited by kidney dose” value is “over 1460 MBq” and the “Total dose per examination (PET plus CT)” value is listed as 1.78–2.64. Besides, the SUV in “in vivo” (Kidney uptake (SUV)) was greater than 10 SUV. Further, the SUV in “in vivo” (setting [3]) was less than 0.5 SUV. Moreover, the SUV in the data set “in vivo” (setting [4]) was less than 0.1 SUV. Further, in the data set “in vivo” (Uptake in the brain (SUV)), the SUV is less than 0.01 SUV. Besides, in the data set “in vivo”, the SUV at 2 h is less than 0.1 SUV; the “Radioactivity that stayed in liver and spleen” value is recorded as “Over 85%”; the “Uptake in most of the organs (SUV)” value is given as “below one”.
